test: soluble on expression in E. coli; label from the status in PepcDB or PDB records

Which “soluble on expression in E. coli” value does the source give for “MAHHHHHHMPLVEYVNEEGYRLDGRKEDECRLIKINVGNENIFTDADGFAFYEIGNTKLLSYIQGPTELKKSEEKCSIKCEVFLSPFNVYEKKKKKTKDSVTNEISAYIRNICENIILLDLYKNSEINIFLYIIERDGGVKHAAINTCILALIDAGIAIKYFISACSVLFLQNRILVDGNQLEINSGAPELTMVIELNTHKIVLLEFDAEVPIDIFEAMVRTCMDCCINLGNVMKLTVKENAIKLLCLNNMLNA” here?
Its value is “not soluble”.

For “MGSDKIHHHHHHMIALKELKQYADLHVKTHSFQVINPRQVLQSIERAASEEPTAGGWDWQWVDAANKCLQANAIEDAIQCYNFARFPFPKTSLQQEAADRLTKVFEQAYCREDVQKHRVYYDNQKVTVYAANLHPDLPCLLVLGGIVSIKEQWSVFLQVGKRLGFSVLITECPGVGENQVRYHADSYRMIGQILDTFAGQAKVGDTYIVGMSFGGHLAMKQALHDERIKGITTVGAPLHYFFQDYSQLNVPFITQATLAHVMEEELDHVGRALSRFAFMPKELNKLKIPITYIFSSKDEIIPKSEKSFLLDNIANLTFYEFDDVHGSPNHLPLIQKIIPLSILKHSNSKRYFVRIMLAFLLTYNKWKGRDGKR”, which “soluble on expression in E. coli” value is on record?
Its value is “not soluble”.

Which “soluble on expression in E. coli” value does the source give for “MRRSLVVAVMAIMPMVGLANQNSRPDIQVNVPPEVFSTRGQSSQPCIQCCVYQDQNYSEGAVIKVEGVVLQCQRDEKTISTNPLVWRRVKPLEHHHHHH” here?
The value was “not soluble”.

Which “soluble on expression in E. coli” value does the source give for “MSLGNPAAMLAAYNTSTQVAPQPQLGPRAGEVQLSSEQQAMIDYVLAGKDVIVDATVGSGKTTAIQRLCSIMGADHDVLYLTYSKLLKVDAQQRVRGAKVQNYHGIVYPHLLKAGIKCGISESIREFNKNFKHISRTFPSYDLLVIDEYQDINEDYAELLRNIKSVNPLMQIVMVGDLEQKVRSDTTLDPQEFAAQLCEDPVFAPFTQSFRIGEAMAAGLADAWNKPIVGANTAQQIEYRSFAEAVVLIQSTEPSKLLCLGSRNGQMSDALNVVERKSPAKFNKKTVFASIRDGDSQIAHPNDAAVFTTFDSSKGLERDTCVVFDYDEEFWDMRLGYPNVDPVVMRNVFLVAASRGKNKVVFVRSDSLQAAYEAGADWAAGLAVGVVDNNTEVAPEVDAHTPAEESKGDVGEVQSQIERMMGFIPVSVFKELPELAPSEYARPISVTEAFDFKYAENVEACFDLLDVKRLDNGKGAAIEVNRSDGLIDLSPTVGNFQEAVFFKDYNVHTALSAYPSQFAKNLKRLVKKNNSVWRNCLIVTAASTEQMRYVDQVRSSIPVAAEKALVSRLSTRLNADSRNQIPLILDGEAVQSKVVRTPMSFAGVADAVHKGVLYELKFVSELTHPMFLQLAMYLVMSGMKDGILWNTRTDEAWQVRVPDPKRFLNAVVLCVSKQDYRVGNFDLPSTGGEGHHHHHH” here?
The value was “soluble”.

Which “soluble on expression in E. coli” value does the source give for “MHATSRVAWFWRPSCQSFIRKMPCRPIVLSGPSGGGKSTILTRAMQEYPNSFAFSVSHTTRQPRAGEEHGKHYYFTEKEKMQEMIKNNEFLEFATFSGNTYGTSKKTVLEIENSGKICVLDIELQGVRNIKNSHLDARYILIRAPSIKLLEERLRARGTETEESLSKRLQHASEDLVEIEKNPTLFDKVIVNDDLERAYKEFVDLLRDDLEKTSKK” here?
The value was “not soluble”.

Which “soluble on expression in E. coli” value does the source give for “MENNENHEKLNGVLRKFLGDAFTLDGKEGGLNMEKLREAIKKEKPIMNILLMGATGVGKSSLINALFGKEVAKAGVGKPITQHLEKYVDEEKGLILWDTKGIEDKDYENTLESIKKEMEDSFKTLDEKEAIDVAYLCVKETSGRVQERERESYLEHHHHHH” here?
Its value is “not soluble”.

With “MDSSNYFYGGNNICIINTKWGKHSGIGGYAEIIDTLVGNFTNISSWAKIGIRDHIHTNFLICDFVYKDNDHIMPPGISSFEDYWVKIGNDVWVGTNVTILRGVEVGDGAVIAAGSVVTKSIPPYAIVGGNPAKFIKWRFPFEVREKLLEIKLEHHHHHH” as the sequence, how does the “soluble on expression in E. coli” value read?
Its value is “not soluble”.

For “MAKRIVAMSSTHIAMLDAIGEVRCITGVSGIDYISNPDIQARRDSIGDVGYEGNINYELLLSLDPDLVLLYGVNGASAMESKLEELDIPFMYVGDYLEESPLGKAEWMVVLSEVTGKREKGEKAFAAIPVRYNALKKKVADSTLEHHHHHH”, which “soluble on expression in E. coli” value is on record?
The value was “soluble”.

For “MASSKIVPLYQSMLNDLIRQIESGELVENAKLPSEQKLGEKYDVSRITVRRALAELENKDYIYKKQGQGSFVKNKEDIDLGIHYLDVRKAIENMNAVPEIRLEAFKLIVDGSESDVRKVMEINSDVYLYYLRYMVYADHRPVFHEQVYLPFERFPRIFNSEIVNNDLMPFLVKKYGLKASFFSHTQPALITKSNRKEFDLNVGDPMIYMQTRGIEEKEIIYYRKAAVVGNLIMYIVG”, which “soluble on expression in E. coli” value is on record?
Its value is “not soluble”.

With “MVAEVSPKLAASPMKKPFGFRGKMGKWCCCCFPCCRGSGKNNMGAWRDHDDSAFTEPRYHVRREDLGKLHRAAWWGEVPRADLIVMLRGPGINKRDKKKRTALHLACANGNSEVVSLLLDRQCQLHVFDSKKRTALIKAVQCQEDECALMLLQHGTDPNLPDMYGNTALHYAVYNEDKLMAKTLLLYGADIESKNKGGLTPLLLAVHGQKQRMVKFLIKKKANLNALDRFGRICQLLSDYKENQMPNNSSGNSNPEQDLKLTSEEEPQRLKGSENSQHEKVTQEPDINKDCDREVEEEMQKHGSNNVGLSENLTDGAAAGNGDGGLVPQRKSRKHENQQFPNTEIEEYHRPEKKSNEKNKVKSQIHSVDNLDDITWPSEIASEDYDLLFSNYETFTLLIEQLKMDFNDSASLSKIQDAVISEEHLLELKNSHYEQLTVEVEQMENMVHVLQK” as the sequence, how does the “soluble on expression in E. coli” value read?
The value was “not soluble”.

With “MIWIVGSGTCRGQTTERAKEIIERAEVIYGSRRALELAGVVDDSRARILRSFKGDEIRRIMEEGREREVAVISTGDPMVAGLGRVLREIAEDVEIKIEPAISSVQVALARLKVDLSEVAVVDCHAKDFDAELTELLKYRHLLILADSHFPLERLGKRRVVLLENLCMEGERIREGNADSIELESDYTIIFVEREVME” as the sequence, how does the “soluble on expression in E. coli” value read?
The value was “soluble”.

Which “soluble on expression in E. coli” value does the source give for “MTAAPGTSMATPHVAGIAALLLQAHPSWTPDKVKTALIETADIVKPDEIADIAYGAGRVNAYKAINYDNYAKLVFTGYVANKGSQTHQFVISGASFVTATLYWDNANSDLDLYLYDPNGNQVDYSYTAYYGFEKVGYYNPTDGTWTIKVVSYSGSANYQVDVVSDGSLSQPGSSPSPQPEPTVDAKTFQGSVHLEHHHHHH” here?
Its value is “not soluble”.

Which “soluble on expression in E. coli” value does the source give for “MLWTDCLTRLRQELSDNVFAMWIRPLVAEETTDSLRLYAPNPYWTRYIQEHHLELISILVEQLSEGRIRQVEILVDSRPGAILSPAEQPATTTAALSSTPVVPQRVKKEVVEPAATQSNKILNSKKRLLNPLFTFSLFVEGRSNQMAAETCRKVLTQLGASQHNPLFLYGPTGLGKTHLMQAVGNALLQAKPNARVMYMTAESFVQDFVSSLQKGKVEEFKKNCRSLDLLLVDDIHLLAGKEASLVEFFYTFNALLDESKQIILTSDRYPKELTELDPRLVSRFSWGLSVGVEPPDIETRIEILLKKAENSGVDLPRNCALFIAQQVVANVRELEGALNKVVAIARFKGSQIDLDVVRESLKDVLAIRARTISVENIQRVVSEYFRIPLKELIGPKRTRIYARPRQLAMGLARELTGDSFPEIGMAFGGRDHSTVMHACEKVQSLKQEDPIFNEDYKNLLRLLQSLEHHHHHH” here?
The value was “not soluble”.

With “SLVSSSKITRAREMVTKTEEKQLNQLEIQVDNGGGGTWEYLCLVRNLKVRRSEKVLKHGSSILNDQKKRSALGPDEWTLNEQVAIAAMDCQCLGVAQSCIKALQTKFPGSKRVGRLEALLLEAKGLWGEAEEAYASLLEDNPLDQAIHKRRVAISKALGKPSIAIELLNKYLELFMADHDAWRELAELYLSLQMYKQAAFCYEELILSQPTVPLYHLAYAEVLYTIGGVENIISARKYYAATVDLTGGKNTRALLGICLCASAIAQLSKGRNKEDKDATAAPELHSLAAAAVEKEYKQKAPDKLQLISSALRILKT” as the sequence, how does the “soluble on expression in E. coli” value read?
The value was “soluble”.

For “MLKRCNFKNQVKYFQSDFEQLIRQHPEKIIILDFYATWCGPCKAIAPLYKELATTHKGIIFCKVDVDEAEDLCSKYDVKMMPTFIFTKNGDAIEALEGCVEDELRQKVLEHVSAQ”, which “soluble on expression in E. coli” value is on record?
The value was “not soluble”.
